In the supplement of paper PMC9112550, “Optimization of the antimicrobial peptide Bac7 by deep mutational scanning” (BMC Biology, 2022):

Test system: Escherichia coli TOP10
Assay: shrunken log2 fold change of peptide-encoding DNA abundance (4.5 h post-induction vs induction); higher = less antimicrobial activity (less host growth inhibition)
Settings: time post-induction: 4.5 h; library: site-saturation at positions 5, 18, 19, 20
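Note: peptides expressed intracellularly from a pBAD plasmid library in pooled LB shake-flask culture, induced with 0.3% L-arabinose, DNA abundance read by NGS, three biological replicates, DESeq2 with apeglm shrinkage.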

Sequence	shrunken log2 fold change
RRIRSRPPRLPRPRPRPEVVPRP	0.471
RRIRPRPPRLPRPRPRPPECPRP	0.338
RRIRWRPPRLPRPRPRPATMPRP	0.0187
RRIRFRPPRLPRPRPRPVFVPRP	-0.277
RRIRSRPPRLPRPRPRPWGHPRP	0.109
RRIRPRPPRLPRPRPRPWPEPRP	0.0423
RRIRARPPRLPRPRPRPIPMPRP	0.0374
RRIRQRPPRLPRPRPRPTKQPRP	0.045
RRIRTRPPRLPRPRPRPCTHPRP	-0.0873
